US7375083B2, “Pharmaceutical compositions for prevention of overdose or abuse” (Shire LLC, priority 2003, dated 2008)

How the values were obtained:
[1] = Intravenous bioavailability in rats, plasma d-amphetamine by ELISA; conditions: relative to amphetamine
[2] = Kitchen tests: release of amphetamine by water, acid, base and heat; conditions: heated to boiling for 20-60 minutes
[3] = Oral pharmacokinetics in rats, plasma d-amphetamine by ELISA; conditions: Oral, relative to amphetamine (first value where two are given)
[4] = Intranasal plasma levels of oxycodone conjugates in rats, ELISA; conditions: intranasal 2 mg/kg
[5] = Oral plasma levels of oxycodone conjugates in rats, ELISA; conditions: oral 2 mg/kg
[6] = Intravenous bioavailability of oxycodone conjugates in rats, LC/MS/MS; conditions: 1 mg/kg dose; for AUC 0-1 h / AUC Percent OC / Cmax / Cmax Percent OC: oxycodone plus oxymorphone
[7] = Intranasal bioavailability of oxycodone conjugates in rats, LC/MS/MS; conditions: 1 mg/kg dose

Compound: CC(Cc1ccccc1)NC(=O)C(N)Cc1ccccc1 (stereo not drawn) [F-Amp]
- Percent AUC [1]: 87%
- Percent Cmax [1]: 89%

Compound: CC(Cc1ccccc1)NC(=O)CNC(=O)CNC(=O)CN (stereo not drawn) [Gly3-Amp, 2-Amino-N-({[(1-methyl-2-phenyl-ethylcarbomyl)-methyl]-carbomyl}-methyl)-acetamide]
- amphetamine detected after treatment: Baking Powder [2]: 0%
- amphetamine detected after treatment: Baking Soda [2]: 0%
- amphetamine detected after treatment: Tap Water [2]: 0%
- amphetamine detected after treatment: Vinegar [2]: 0%

Compound: CC(Cc1ccccc1)NC(=O)C(O)C(O)C(O)C(O)CO (stereo not drawn) [Gulonate-Amp]
- Percent AUC [3]: 1%
- Percent Cmax [3]: 1%
- Percent AUC [1]: 3%
- Percent Cmax [1]: 5%

Compound: C[C@@H](Cc1ccccc1)NC(=O)[C@@H](N)CCCCN [K-Amp]
- Percent AUC [3]: 98%
- Percent Cmax [3]: 55%
- Percent AUC [1]: 3%
- Percent Cmax [1]: 3%

Compound: COc1ccc2c3c1O[C@H]1C(OC(=O)[C@@H](NC(=O)[C@H](Cc4ccc(O)cc4)NC(=O)[C@@H](N)CCC(=O)O)C(C)C)=CC[C@@]4(OC(=O)[C@@H](NC(=O)[C@H](Cc5ccc(O)cc5)NC(=O)[C@@H](N)CCC(=O)O)C(C)C)[C@@H](C2)N(C)CC[C@]314 [[Glu-Tyr-Val]2-OC]
- % AUC [4]: 18%
- % Cmax [4]: 20%
- % AUC [5]: 115%
- % Cmax [5]: 103%

Compound: COc1ccc2c3c1O[C@H]1C(OC(=O)[C@@H](NC(=O)[C@H](CCC(=O)O)NC(=O)CN)C(C)C)=CC[C@@]4(OC(=O)[C@@H](NC(=O)[C@H](CCC(=O)O)NC(=O)CN)C(C)C)[C@@H](C2)N(C)CC[C@]314 [[Gly-Glu-Val]2-OC]
- % AUC [4]: 29%
- % Cmax [4]: 48%
- % AUC [5]: 93%
- % Cmax [5]: 61%

Compound: COc1ccc2c3c1O[C@H]1C(OC(=O)[C@@H](NC(=O)[C@H](Cc4ccc(O)cc4)NC(=O)CN)C(C)C)=CC[C@@]4(OC(=O)[C@@H](NC(=O)[C@H](Cc5ccc(O)cc5)NC(=O)CN)C(C)C)[C@@H](C2)N(C)CC[C@]314 [[Gly-Tyr-Val]2-OC]
- % AUC [4]: 56%
- % Cmax [4]: 54%
- % AUC [5]: 92%
- % Cmax [5]: 99%

Compound: CC[C@H](C)[C@H](N)C(=O)N[C@@H](Cc1ccc(O)cc1)C(=O)N[C@H](C(=O)OC1=CC[C@@]2(OC(=O)[C@@H](NC(=O)[C@H](Cc3ccc(O)cc3)NC(=O)[C@@H](N)[C@@H](C)CC)C(C)C)[C@H]3Cc4ccc(OC)c5c4[C@@]2(CCN3C)[C@H]1O5)C(C)C [[Ile-Tyr-Val]2-OC]
- % AUC [4]: 3%
- % Cmax [4]: 4%
- % AUC [5]: 71%
- % Cmax [5]: 82%

Compound: COc1ccc2c3c1O[C@H]1C(OC(=O)[C@@H](NC(=O)[C@H](Cc4ccc(O)cc4)NC(=O)[C@@H](N)CC(C)C)C(C)C)=CC[C@@]4(OC(=O)[C@@H](NC(=O)[C@H](Cc5ccc(O)cc5)NC(=O)[C@@H](N)CC(C)C)C(C)C)[C@@H](C2)N(C)CC[C@]314 [[Leu-Tyr-Val]2-OC]
- % AUC [4]: 4%
- % Cmax [4]: 5%
- % AUC [5]: 131%
- % Cmax [5]: 120%

Compound: COc1ccc2c3c1O[C@H]1C(OC(=O)[C@H](CC(C)C)NC(=O)[C@@H]4CCCN4C(=O)[C@@H]4CCCN4)=CC[C@@]4(OC(=O)[C@H](CC(C)C)NC(=O)[C@@H]5CCCN5C(=O)[C@@H]5CCCN5)[C@@H](C2)N(C)CC[C@]314 [[PPL]2-OC, [PPL]2-Oxycodone]
- Oxycodone plus oxymorphone level at 5 Minutes [6]: 22
- Oxycodone plus oxymorphone level at 15 Minutes [6]: 19
- Oxycodone plus oxymorphone level at 30 Minutes [6]: 19
- Oxycodone plus oxymorphone level at 60 Minutes [6]: 43
- AUC 0-1 h [6]: 24 ng·h/mL
- AUC Percent OC [6]: 29%
- Cmax [6]: 43 ng/mL
- Cmax Percent OC [6]: 43%
- Oxycodone plus oxymorphone level at 5 Minutes [7]: 1380
- Oxycodone plus oxymorphone level at 15 Minutes [7]: 499
- Oxycodone plus oxymorphone level at 30 Minutes [7]: 390
- Oxycodone plus oxymorphone level at 60 Minutes [7]: 98
- AUC Percent OC ([7]; oxycodone plus oxymorphone): 61%
- Cmax Percent OC ([7]; oxycodone plus oxymorphone): 65%

Compound: COc1ccc2c3c1O[C@H]1C(OC(=O)[C@@H](NC(=O)[C@H](CCC(=O)O)NC(=O)[C@@H]4CCCN4)C(C)C)=CC[C@@]4(OC(=O)[C@@H](NC(=O)[C@H](CCC(=O)O)NC(=O)[C@@H]5CCCN5)C(C)C)[C@@H](C2)N(C)CC[C@]314 [[Pro-Glu-Val]2-OC]
- % AUC [4]: 34%
- % Cmax [4]: 46%
- % AUC [5]: 90%
- % Cmax [5]: 82%

Compound: COc1ccc2c3c1O[C@H]1C(OC(=O)[C@@H](NC(=O)CNC(=O)[C@@H](N)CO)C(C)C)=CC[C@@]4(OC(=O)[C@@H](NC(=O)CNC(=O)[C@@H](N)CO)C(C)C)[C@@H](C2)N(C)CC[C@]314 [[Ser-Gly-Val]2-OC]
- % AUC [4]: 64%
- % Cmax [4]: 73%
- % AUC [5]: 90%
- % Cmax [5]: 92%

Compound: Oxycodone Bitartrate
- Oxycodone plus oxymorphone level at 5 Minutes [6]: 99
- Oxycodone plus oxymorphone level at 15 Minutes [6]: 104
- Oxycodone plus oxymorphone level at 30 Minutes [6]: 94
- Oxycodone plus oxymorphone level at 60 Minutes [6]: 51
- AUC 0-1 h [6]: 82 ng·h/mL
- AUC Percent OC [6]: 100%
- Cmax [6]: 99 ng/mL
- Cmax Percent OC [6]: 100%
- Oxycodone plus oxymorphone level at 5 Minutes [7]: 2128
- Oxycodone plus oxymorphone level at 15 Minutes [7]: 1003
- Oxycodone plus oxymorphone level at 30 Minutes [7]: 688
- Oxycodone plus oxymorphone level at 60 Minutes [7]: 278
- AUC 0-1 h ([7]; oxycodone plus oxymorphone): 428 ng·h/mL
- AUC Percent OC ([7]; oxycodone plus oxymorphone): 100%
- Cmax ([7]; oxycodone plus oxymorphone): 2128 ng/mL
- Cmax Percent OC ([7]; oxycodone plus oxymorphone): 100%
